For this assay, the target named is His6-tagged NBDY (human). As to the kind of experiment: SPR + ITC.

For orientation: Kd means the concentration at which binding is half-saturated. Turning to “purified EDC4 WD40 domain (residues 72-528) (from UniProt Q6P2E9 72-528) (domain or fragment)”, the Kd was found to be 1 µM.

(Values after PMC7682656.)
